This note sets out measurements from patent publication US20260116991A1 (HAINAN SIMCERE ZAIMING PHARMACEUTICAL, published 2026).

For experiment [1], the target named is T1, polypeptide GC3pep of human GPC3 (Ala524-Lys563) (human).
T1 construct: Residues Ala524-Lys563 of human GPC3 (NCBI NM_004484.3); coated on the ELISA plate; also called membrane proximal polypeptide GC3pep
T1 peptide: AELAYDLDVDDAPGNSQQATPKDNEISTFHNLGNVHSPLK
Put plainly: ELISA, coated peptide. In general terms: In an ELISA, binding on a coated surface is turned into a signal by an enzyme label.

The target in experiment [2] is T2, murine GPC3-His protein (Sino Biological, Cat. No. 50989-M08B) (murine, UniProt Q8CFZ4 25-558).
T2 construct: Bought protein; also called murine GPC3 protein; mouse GPC3-his protein; not shown: His tag
Put plainly: ELISA, coated antigen.

Positions count from the first letter of the chain named.

T2 sequence (Q8CFZ4 25-558 limits assumed): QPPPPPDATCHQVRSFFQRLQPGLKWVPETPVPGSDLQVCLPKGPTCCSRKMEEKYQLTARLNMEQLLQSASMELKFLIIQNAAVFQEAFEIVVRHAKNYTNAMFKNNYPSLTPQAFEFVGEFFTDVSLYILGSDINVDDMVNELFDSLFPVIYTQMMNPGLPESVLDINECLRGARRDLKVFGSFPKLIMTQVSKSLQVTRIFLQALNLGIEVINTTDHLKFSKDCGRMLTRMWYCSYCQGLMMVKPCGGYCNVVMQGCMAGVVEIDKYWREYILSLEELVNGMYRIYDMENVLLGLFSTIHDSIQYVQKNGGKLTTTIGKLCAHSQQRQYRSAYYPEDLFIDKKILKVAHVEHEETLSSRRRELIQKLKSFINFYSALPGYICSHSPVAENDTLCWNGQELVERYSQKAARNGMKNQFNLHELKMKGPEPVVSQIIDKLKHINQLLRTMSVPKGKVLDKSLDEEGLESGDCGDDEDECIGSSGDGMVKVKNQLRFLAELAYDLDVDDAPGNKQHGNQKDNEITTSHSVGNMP

B1: F4.13.7 human-murine chimeric antibody (antibody, human IgG1, kappa, V domains shown)
VH: QVQLQQPGAELVKPGASVKLSCKASGYTFTNNWVHWVKQRPGQGLEWTGMIHPDSGSTIYNEKFQSKATLTVDKSSSTAYMQLSSLTSEDSAVYYCARGYYDSSSYYAMDYWGQGTSVTVSS
VL: NIQMTQTTSSLSASLGDRVTISCSASQGIFNYLNWYQQKPDGTVKLLIYYTSSLHSGVPSRFSGSGSGTDYSLTISNLEPEDIATYYCQQYSKLPWTFGGGTKLEIKR
notes: Chimeric
For the molecule B1, in experiment [1], the binding result is “no binding (tested: 100 nM)”.

B2: F1.110.24 human-murine chimeric antibody (antibody, human IgG1, kappa, V domains shown)
VH: EVKLVESGGGLVQPGGSLKLSCAASGFTFSDFYMYWVRQTPEKRLEWVAFISNGGGSTYYPDTVKGRFTISRDNVKNTLYLQMSRLKSEDTAMYYCARPDTSWFAYWGQGSLVTVSA
VL: DIQMTQTTSSLSASLGDRVTISCRASQDIDNYLNWYQQKPDGTVKVLISYTSRLHSGVPSRFSGSGSGTDYSLTISNLEQEDIATYFCQQGNTLPWTFGGGTKLEIKR
notes: Chimeric
For B2, in experiment [1], the binding result is given as “no binding (tested: 100 nM)”.

B3: F1.145.22 human-murine chimeric antibody (antibody, human IgG1, kappa, V domains shown)
VH: QVQLQQSGTDLARPGASVKLSCKASGYTFTSFGISWVKQRTGQGLEWIGEIYPRSGSPYYNEKFTGKATLTADKSSSTAYMELRSLTSEDSAVYFCAKDFGSSYVFDYWGQGTALTVSS
VL: DIQMTQSPASLSASVGETVTITCRASENIYSYLTWYQQKQGKSPQLLVYNAKTLAEGVPSRFSGSGSGTQFSLKINSLQPEDFGTYYCQHHYGTPPTFGTGTKLDLKR
notes: Chimeric
For B3, the binding result in experiment [1] was “no binding (tested: 100 nM)”.

B4: F1.41.17 human-murine chimeric antibody (antibody, human IgG1, kappa, V domains shown)
VH: EVQLVESGGDSVKPGGSLKLSCAASGFTFSSYGMSWVRQTPDKRLEWVATINSGGSYTYYQDSVKGRFTISRDNAKNTLYLQMSSLKSEDTAIYYCVRHHYGSSYDYFDYWGQGTTLTVSS
VL: DIVMTQAAPSVPVMPGESVSISCRSSKSLLHSNGNTHLYWFLQRPGQSPQLLIYRMSNLASGVPDRFSGSGSGTAFTLRISRVEAEDVGVYYCMQHLEYPLTFGAGTKLELKR
notes: Chimeric
On to B4, for which the binding result in experiment [2] and in experiment [1] was “no binding (tested: 100 nM)” in each case.

B5: F1.136.7 human-murine chimeric antibody (antibody, human IgG1, kappa, V domains shown)
VH: EVQLQQSGPVMVKPGPSVKISCQTSGFTFTDYYIHWVKQSHGKSLEWIGLVFPYDGGTNYNQKFKDKATLTLDTSSSTAYMELNSLTSEDSAVYYCARAGGFSYALNYWGQGTSVTVSS
VL: DIQMTQSPSSLSASLGGKVTITCKASQDINNYIAWYQHKPGKGPRLLIHFTSTLQPGIPSRFSGSGSGRDYSFSISNLEPEDIATYYCLQYDNLLLTFGAGTKLELKR
notes: Chimeric
Consider B5, for which the binding result in experiment [1] is “no binding (tested: 100 nM)”.

B6: F1.118.4 human-murine chimeric antibody (antibody, human IgG1, kappa, V domains shown)
VH: QVQLQQSGAELAKPGASVKLSCKASGYSFTSYWIHWVKQRPGQGLEWIGYINPSSGYTKYNQKFKDKATLTADKSSSTAYMQLSSLTYEDSAVYYCARFGSSSFYFDYWGQGTTLTVSS
VL: DIVLTQSPASLAVSLGQRATISCRASQSVSSSSYSYMHWYQQKPGQPPKLLIKYASNLDSGVPARFSGSGSGTDFTLNIHPVEEEDTATYYCQHSWEIPAFGGGTKLEIKR
notes: Chimeric
B6: the binding result in experiment [2] and in experiment [1] was “no binding (tested: 100 nM)” each time.

B7: F1.111.11 human-murine chimeric antibody (antibody, human IgG1, kappa, V domains shown)
VH: EVQLQQSGPELVKPGASVKISCKASGYTFTDYYMNWVKQSHGKSLEWIGDIYPNNGDTTYNQRFKGKATLTVDKSSSTAYMELRSLASEDSAVYYCACPYNNPFGYWGQGTLVTVSA
VL: DVVMTQTPLSLPVSLGDQASISCRSSQSLVHSNGNTYLHWYLQKPGQSPKLLIYKVSNRFSGVPDRFSGSGSGTDFTLKISRVEAEDLGVYFCSQSTHVPWTFGGGTKLEIKR
notes: Chimeric
Consider B7, for which the binding result in experiment [1] is “no binding (tested: 100 nM)”.

B8: F1.62.9 human-murine chimeric antibody (antibody, human IgG1, kappa, V domains shown)
VH: QVQLQQSDAELVKPGASVKISCKVSGYIFTDHTIHWMKQRPEQGLEWIGYIYPRDGSIKYNENFKGKATLTADKSSSATYMQLNSLTSEDSAVYFCARPIYYDYAYYFDYWGQGTTLTVSS
VL: B7 VL with T7S, S26R, L51V, W101Y
notes: Chimeric
Take B8: the binding result in experiment [1] was “no binding (tested: 100 nM)”.

B9: F4.26.1 human-murine chimeric antibody (antibody, human IgG1, kappa, V domains shown)
VH: QVQLKQSGPGLVQPSQSLSITCTVSGFSLTSYGVHWVRQSPGKGLEWLGVIWSSGNTDYNAVLISRLSIKKDDSKSQVFFKMNSPQVDDSAIYYCGRNGGWLLRGFMDFWGQGTSVTVSS
VL: B7 VL with V30L, K44R, P45S, K50N, S70G, V90I
notes: Chimeric
B9: the binding result in experiment [1] is listed as “no binding (tested: 100 nM)”.

B10: F4.18.4 human-murine chimeric antibody (antibody, human IgG1, kappa, V domains shown)
VH: QVQLHQSGAEMAKPGASVNLSCKTSGFTFTDYGISWVKQRTRQGLEWIGDIYPRHINIYYNEKFKDKATLTADRSSSTAYMELRSMTSEDSAVYFCARRGTTGRGALDYWGQGTSLTVSS
VL: DILLTQSPAILSVSPGERVSFSCRASQSIGTSIHWYQQRTNGSPRLLIKYAFESISGIPSRFGGSGSRTDFTLTINSVESEDIADYYCQQTYNWPYTFGGGTKLEIKR
notes: Chimeric
With B10, in experiment [1], the binding result is “no binding (tested: 100 nM)”.

B11: F1.92.17 human-murine chimeric antibody (antibody, human IgG1, kappa, V domains shown)
VH: EVQLQQSGPELVKPGASVKMSCKASGYTFTDYNMHWVRQSHGKSLEWIGYINPNNGDTIYNQNFKGKATLTVNKSSSTAYMELRSLTSEDSAVYYCSRTITYYYSMDYWGPGTSVTVSS
VL: QIVLTQSPALMSASPGEKVTMTCSASSSVSYMYWYQQKPRSSPKPWIYLTSNLASGVPARFSGSGSGTSYSLTISSMEAEDAATYYCQQWSSNPLTFGAGTKLELKR
notes: Chimeric
As to B11, in experiment [1], the binding result was “no binding (tested: 100 nM)”.

B12: F1.153.1 human-murine chimeric antibody (antibody, human IgG1, kappa, V domains shown)
VH: QIQLVQSGPELKKPGETVKISCKASGYTFTTAGMQWVQKMPGKGFKWIGWINTHSGEPQYAEDFKGRFAFSLETSASTAYLQISNLKNEDTATYFCARSFYYHGSSFFYFDYWGQGTTLTVSS
VL: DIVMTQSQKFMSTTVGDRVSITCKASQNVGTAVAWYQQKPGQSPKLLIYSASNRYTGVPDRFTGSGSGADFTLTISNMQSEDLADYFCQQYSRYPLTFGAGTKLELKR
notes: Chimeric
Consider B12, for which the binding result in experiment [2] and in experiment [1] was “no binding (tested: 100 nM)” in each case.

B13: F1.3.9 human-murine chimeric antibody (antibody, human IgG1, kappa, V domains shown)
VH: QVQLQQPGTELVKPGASVKLSCKASGYTFTSYWIHWVKQRPGQGLEWIGNINPPNAGTNYNEKFKSKATLTVDKSSSTAYMQLSSLTSEDSAVYYCARGRWLLHDYWGQGTTLTVSS
VL: DIQMTQSPASLSISVGETVTITCRASENIYSNLAWYQQKQGKSPQLLVYGTKNLAEGVPSRFSGSGSGTQYSLKINSLQSEDFGNYYCQHFWGTPYTFGGGTKLEILR
notes: Chimeric
Take B13: the binding result in experiment [1] is recorded as “no binding (tested: 100 nM)”.

B14: F1.83.6 human-murine chimeric antibody (antibody, human IgG1, kappa, V domains shown)
VH: QVQLQQSGPELVKPGASVKISCKASGYAFSSSWMNWVKQRPGKGLEWIGRIYPGDGDTNYNGRFKGKATLTVDKSSSTAYMQLSSLTSEDSAVYFCARGGVFTMALDHWGQGTTLTVSS
VL: DIQMTQSPSSLSASLGGKVTITCKASQDINKYIAWYQHKPGKGPRLLIHYTSTLQPGIPSRFSGSGSGRDYSFSISNLEPEDIATYYCLQYDNLFTFGGGTKLEIKR
notes: Chimeric
Turning to B14, the binding result in experiment [1] was “no binding (tested: 100 nM)”.

B15: F1.9.19 human-murine chimeric antibody (antibody, human IgG1, kappa, V domains shown)
VH: DVQLQESGPGLVKPSQSLSLTCSVTGYSITSGYYWNWIRQFPGNRLEWMAYISYDGINNYNPSLKNRISIARDTSTNQFFLKLNSVTSEDTATYYCATTTEVALFDHWGQGTTLTVSS
VL: DVLLTQTPLSLPVSLGDQASISCRSSQNIVHGNGNTYLEWFLQKPGQSPKLLIYKVSNRFSGVPDRFSGSGSGTDFTLKISRVEAEDLGLYYCFQASHVPWTFGGGTKLEIKR
notes: Chimeric
As for B15, the binding result in experiment [2] and in experiment [1] was “no binding (tested: 100 nM)” throughout.

B16: F1.115.8 human-murine chimeric antibody (antibody, human IgG1, kappa, V domains shown)
VH: EVQLQQSGPELVKPGASVKMSCKASGYTFTEYYMHWVKQSHGKSLEWIGYIYPNNGGNGYNQKFKGKATLTVDKSSSTAYMGLRSLTSEDSAVYYCVRGYYSNWYFDVWGTGTTVTVSS
VL: B15 VL with L4M, N28S, G32S, N35K, F41Y, L90V, A96G, W101F, G105S
notes: Chimeric
As to B16, the binding result in experiment [1] is given as “no binding (tested: 100 nM)”.

B17: F4.21.16 human-murine chimeric antibody (antibody, human IgG1, kappa, V domains shown)
VH: DVQLQESGPGLVKPSQSLSLTCSVTGYSITSGYYWNWIRQFPGNKLEWMGYISYDVTVNYNPSLKNRISITRDTSKNQFFLKLNSVTTEDTATYYCATITSVASMDHWGQGTSVTVSS
VL: B15 VL with V2I, L4M, G32R, F41Y, I53L, L90I, A96G, V99F, W101F, G105S
notes: Chimeric
Turning to B17, the binding result in experiment [2] and in experiment [1] was “no binding (tested: 100 nM)” each time.
